Assay [1] deals with EGFP-RhoA (UniProt P61586). Kind of assay: fluorescence polarisation; 100 nM EGFP-RhoA.GDP titrated with Dbs; 20 mM Tris pH 7.4, 150 mM KCl, 1 mM TCEP, 1 mM EDTA (nucleotide-free RhoA); 25 °C.
In assay [2] the target is EGFP-RhoA (UniProt P61586). Kind of assay: fluorescence polarisation; 100 nM EGFP-RhoA.GDP titrated with Dbs; 20 mM Tris pH 7.4, 150 mM KCl, 1 mM TCEP, 2 mM MgCl2 (nucleotide-loaded RhoA); 25 °C. A general note: Polarisation of emitted light reports the rotation of a fluorescent probe.

Chain of EGFP-RhoA (P61586 whole entry): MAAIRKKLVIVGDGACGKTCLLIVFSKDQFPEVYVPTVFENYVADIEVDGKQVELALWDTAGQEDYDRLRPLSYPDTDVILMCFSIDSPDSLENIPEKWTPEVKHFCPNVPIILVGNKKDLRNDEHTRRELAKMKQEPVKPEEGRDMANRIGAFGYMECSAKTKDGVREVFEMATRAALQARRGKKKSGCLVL

B1: guanine exchange factor Dbs 622-965 (domain or fragment)
chain: TGEEEESLAILRRHVMNELLDTERAYVEELLCVLEGYAAEMDNPLMAHLISTGLQNKKNILFGNMEEIYHFHNRNIPAGLESCIDCPELVGRCFLERMEEFQIYEKYCQNKPRSESLWRQCSDCPFFQECQKKLDHKLSLDSYLLKPVQRITKYQLLLKEMLKYSKHCEGAEDLQEALSSILGILKAVNDSMHLIAITGYDGNLGDLGKLLMQGSFSVWTDHKKGHTKVKELARFKPMQRHLFLHEKAVLFCKKREENGEGYEKAPSYSYKQSLNMTAVGITENVKGDTKKFEIWYNAREEVYIIQAPTPEIKAAWVNEIRKVLTSQLQACREASQHRALEQSH
Consider B1, for which the Kd – broadly, the constant that tells how readily two partners part at equilibrium – in the assay with EGFP-RhoA [1] came out at 0.354 µM; in the assay with EGFP-RhoA [2] it was 21.2 µM.
